Data taken from US20170052184A1 (published 2017).

T1: HCV Core1-169 (HCV-1, UniProt P26664 1-169)
T1 construct: also called recombinant HCV core antigen
T1 sequence: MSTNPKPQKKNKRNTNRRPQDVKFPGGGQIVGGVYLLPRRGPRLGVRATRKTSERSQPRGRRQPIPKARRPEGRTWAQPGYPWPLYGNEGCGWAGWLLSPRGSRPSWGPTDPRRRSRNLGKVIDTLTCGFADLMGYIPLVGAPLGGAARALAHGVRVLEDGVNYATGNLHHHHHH

T2: HCV Core1-169 recombinant antigen (hepatitis C virus (HCV-1), UniProt P26664 1-169)
T2 sequence: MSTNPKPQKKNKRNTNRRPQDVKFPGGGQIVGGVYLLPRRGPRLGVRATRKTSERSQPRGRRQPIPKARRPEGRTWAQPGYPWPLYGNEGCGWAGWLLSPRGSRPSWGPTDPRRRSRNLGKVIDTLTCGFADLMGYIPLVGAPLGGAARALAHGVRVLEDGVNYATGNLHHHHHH


What was measured:
HCV Core1-169 [1] = target: T1, HCV Core1-169; assay: EIA, core1-169 coated on plate
HCV Core1-169 [2] = target: T1, HCV Core1-169; assay: EIA, core1-169 captured by mAb 14-153-229
[3] = target: T2, HCV Core1-169 recombinant antigen; assay: sandwich EIA, 25 ng/ml core1-169; capture mAb 208B-395-334
[4] = target: T2, HCV Core1-169 recombinant antigen; assay: sandwich EIA, 25 ng/ml core1-169; capture mAb 208B-612-226
[5] = target: T2, HCV Core1-169 recombinant antigen; assay: sandwich EIA, 25 ng/ml core1-169; capture mAb 208A-207-271
[6] = target: T2, HCV Core1-169 recombinant antigen; assay: sandwich EIA, 25 ng/ml core1-169; capture mAb C11-9
[7] = target: T2, HCV Core1-169 recombinant antigen; assay: sandwich EIA, 25 ng/ml core1-169; capture mAb 208B-1096
[8] = target: T2, HCV Core1-169 recombinant antigen; assay: sandwich EIA, 25 ng/ml core1-169; capture mAb 208A-110
[9] = target: T2, HCV Core1-169 recombinant antigen; assay: sandwich EIA, 25 ng/ml core1-169; capture mAb 208A-557
[10] = target: T2, HCV Core1-169 recombinant antigen; assay: sandwich EIA, 25 ng/ml core1-169; capture mAb 208A-692
[11] = target: T2, HCV Core1-169 recombinant antigen; assay: sandwich EIA, 25 ng/ml core1-169; capture mAb C11-7
[12] = target: T2, HCV Core1-169 recombinant antigen; assay: sandwich EIA, 25 ng/ml core1-169; capture NC capture mAb
[13] = target: T2, HCV Core1-169 recombinant antigen; assay: sandwich EIA, 25 ng/ml core1-169; capture mAb 208B-741
[14] = target: T2, HCV Core1-169 recombinant antigen; assay: sandwich EIA, 25 ng/ml core1-169; capture mAb 208A-293

| Binder | OD (A492) (HCV Core1-169 [1]) [OD] | OD (A492) (HCV Core1-169 [2]) [OD] | OD492 nm [3] [OD492] | OD492 nm [4] [OD492] | OD492 nm [5] [OD492] | OD492 nm [6] [OD492] | OD492 nm [7] [OD492] | OD492 nm [8] [OD492] | OD492 nm [9] [OD492] | OD492 nm [10] [OD492] | OD492 nm [11] [OD492] | OD492 nm [12] [OD492] | OD492 nm [13] [OD492] | OD492 nm [14] [OD492] |
| --- | --- | --- | --- | --- | --- | --- | --- | --- | --- | --- | --- | --- | --- | --- |
| HCV 208A-210 (antibody, V domains shown) VH: QVQLQQSGPELVKPGASMRISCKASGYTFTSYYVHWIKQRPGQGLEWIGCIYPGDVNTDYNEKFKGKATLTADKSSSTAYMQVSTLTSEDSAIYFCVLYYYGSFAYWGQGTLVTVSA VL: EIVLTQSPAITAASLGQNVTITCRASSSVSYMHWYRQKSGTSPQLWIYEISRRASGVPARFRASGSGTSYSLTISSMEAEDAAIYYCQQWNYPLTFGAGTKLEVKR | 0.87 | 0.87 |  |  |  |  |  |  |  |  |  |  |  |  |
| HCV 208B-911 (antibody, V domains shown) VH: QVHLQQPGAELVRPGVSVKLSCKASGYTFTTYSINWMKQRPGQGLEWIGNIYPSTSHTNYNQKFRDKATMTVDKSSSTAYMQLSSPTSEDSAVYYCTINAYSMDYWGQGTSVTVSS VL: QIVLTQSPEIMSASPGEKVTITCSASSSVSFMYWFQQKPGTSPKLWIYITSNLASGVPTRFSGSGSGTSYSLTISRMEAEDAATYYCQQRSSFPYTFGGGTKLEMKR | 1.18 | 0.14 |  |  |  |  |  |  |  |  |  |  |  |  |
| HCV 208A-110 monoclonal antibody (antibody, V domains shown) VH: not shown VL: DIVLTQSPASLAVSLGQRATISCRASQSVSTSRYSYMHWYQQKPGQPPKLLIKYASNLESGVPARFSGSGSGTDFTLNIHPVAEEDTAAYYCQHSWEFPFTFGSGTKLEIKR |  |  | 0.22 | 0.2 | 0.17 | 0.13 | 0.21 | 0.18 | 0.17 | 0.14 | 0.18 | 0.15 | 0.2 | 0.2 |
| HCV 208A-293 monoclonal antibody (antibody, V domains shown) VH: EVQLQQSGPELVKPGASVKISCKASGFTFTEYAMHWMKQSHGKSLEWIGGINPTNGDAIYNQKFKDKAKLTVDRSSSTAYMELRSLTSDDSALFYCARRELDYFPSWGQGTTLTVSS VL: DIVLTQSPASLIVSLGQRATISCRASQSVSTSRFSYVHWIQQKPGQPPKLLIKYASNLESGVPVRFSGSGSGTDFILNIHPVEEEDTATYFCQHSWEFPFTFGSGTKLEIKR |  |  | 0.44 | 0.37 | 0.39 | 2.6 | 0.41 | 0.52 | 0.52 | 0.34 | 2.87 | 0.37 | 0.5 | 0.49 |
| HCV 208A-557 monoclonal antibody (antibody, V domains shown) VH: QGQMQQSGAELVKPGASVKLSCKTSGFTFSSSYISWLKQKPGQSLEWIAWIYAGTGNTNYNQKFTDKAQLTVDTSSSTAYMQLSSLTTEDSAIYYCAISGTGFTYWGQGTLVTVSA VL: DIALTQSPASLAVSLGQRATISCRASQSVSTSRYSYMHWYQQKPGQPPELLIKYASNLESGVPARFSGSGSGTDFTLNIHPVGEEDTATYYCQHSWDFPFTFGSGTKLEIKR |  |  | 0.28 | 0.25 | 0.18 | 0.14 | 0.35 | 0.44 | 0.32 | 0.13 | 0.22 | 0.18 | 0.38 | 0.41 |
| HCV 208B-826 (antibody, V domains shown) VH: DVQLVESGGGLVQAGGSRKLSCAASGFPFSSFGMHWVRQAPEKGLEWVASISSRTSKIYYADNLKGRFTISRDNPKNTLFLQMTSLGSEDTAMYYCVRSVFGNSYWFFDVWGAGTTVTVSS VL: DIVLTQSPATLSVTPGDRVSLSCRASQRIYNYLHWYQQKSHESPRLLTKYASQSISGIPSRFSGSGSGTDFILTINSVETEDFGMYFCQQSNSWPLTFGAGTKLELRR | 0.65 | 0.72 |  |  |  |  |  |  |  |  |  |  |  |  |
| 208A-207-271 monoclonal antibody (antibody, V domains shown) VH: QGQLQQPGAEFVKPGASLKLSCRASGYTFTSYWIHWVKQRPGQGLEWIGEIDPSDSYINQNQKFRGKATLTVDKSSSTAYMELSGLTSEDSAVYYCARHYYGVLDSWGQGTTLTVSS VL: DIVLTQSPATLSVTPGDRVSLSCRASQRIYNYLHWYQQKSHESPRLLTKYASQSISGIPSRFSGSGSGTDFILTINSVETEDFGMYFCQQSNSWPLTFGAGTKLELRR |  |  | 0.37 | 0.33 | 0.36 | 2.2 | 0.33 | 0.38 | 0.82 | 0.42 | 2.47 | 0.37 | 0.3 | 0.42 |
| 208B-395-334 monoclonal antibody (antibody, V domains shown) VH: QVQLQQSGAGLAKPGASVKMSCKASGYTFTANKMHWTKQRPGQGLEWIGYIDPSSGYTQYNHKIQDKATLTADTSSSTAYMQLSSLTFEDSAVYYCTNFAYWGQGTLVTVSA VL: DIVLTQSPATLSVTPGDRVSLSCRASQRIYNYLHWYQQKSHESPRLLIKYASQSISGIPSRFSGSGSGTDFILTINSVETEDFGMYFCQQSNSWPLTFGAGTKLELRR |  |  | 0.23 | 0.26 | 0.2 | 0.32 | 0.23 | 0.21 | 0.21 | 0.15 | 0.89 | 0.2 | 0.21 | 0.26 |
| HCV 208A-207 (antibody, V domains shown) VH: QGQLQQPGAEFVKPGASLKLSCRASGYTFTSYWIHWVKQRPGQGLEWIGEIDPSDSYINQNQKFRGKATLTVDKSSSTAYMELSGLTSEDSAVYYCARHYYGVLDSWGQGTTLTVSS VL: DIVLTQSPATLSVTPGDRVSLSCRASQRIYNYLHWYQQKSHESPRLLTKYASQSISGIPSRFSGSGSGTDFILTINSVETEDFGMYFCQQSNSWPLTFGAGTKLELRR | 0.11 | 0.41 |  |  |  |  |  |  |  |  |  |  |  |  |
| HCV 208B-1096 monoclonal antibody (antibody, V domains shown) VH: QVQLQQSGAGLAKPGASVKMSCKASGYTFTANKMHWAKQRPGQGLEWIGYIDPSSGYTEYNHKIQYKATLTADTSSSTAYMQLSTLTFEDSAVYYCTNFAYWGQGTLVTVSA VL: DIVMTQTPLTLSVTIGQPASISCKSSQSLLFTNGKTYLNWFLQRPGQSPKRLIYLLSKLDSGVPDRFSGSGSGTDFTLKISRVEAEDLGVYYCLQSTYFPLTFGAGTKLELKR |  |  | 0.2 | 0.24 | 0.18 | 0.33 | 0.26 | 0.19 | 0.17 | 0.15 | 1.06 | 0.17 | 0.23 | 0.24 |
| HCV 208B-822 (antibody, V domains shown) VH: QVQLKQSGPGLVQPSQSLSITCTVSGFSLITYGVHWVRQSPGKGLEWLGVIWGGGSTGYNAAFVSRLNITKDNSKSQVFFKMNSLQPDDTAIYYCARNGGATVFDYWGQGTTLTVSS VL: DIVMTQSPATLSVTPGDRVSLSCRASQTISDYLHWYQQKSHESPRLLIKYASQSISGIPSRFSGSGSGSHFTLSINSVEPEDVGVYYCQNGHSFPWTFGGGTKLEIKR | 0.22 | 0.12 |  |  |  |  |  |  |  |  |  |  |  |  |
| HCV 208A-692 monoclonal antibody (antibody, V domains shown) VH: QGQMQQSGAELAKPGASVKLSCKTSGFTFSSSYISWLKQKPGQSLEWIAWIFAGTGNTNYNQKFTDKAQLTVDTSSSTAYMQLSSLTTEDSAIYYCAISGTGFTYWGQGTLVTVSA VL: EVLMTQSPLSLPVSLGDQASISCRSSQSLEHSNGNTYLEWFLQRPGQPPKLLIYKVSSRFSGVPDRFSGSGSGTDFTLKISRVEAEDLGVYYCFQGSHVPFTFGSGTKLAIKR |  |  | 0.44 | 0.37 | 0.39 | 2.66 | 0.38 | 0.54 | 0.53 | 0.35 | 2.92 | 0.4 | 0.44 | 0.51 |
